From patent US20090081786A1, “Peptide sequences for modulation of protein kinase C” (priority 2006, published 2009)

T1: annexin V (Homo sapiens, UniProt P08758)
T1 sequence (P08758 1-320): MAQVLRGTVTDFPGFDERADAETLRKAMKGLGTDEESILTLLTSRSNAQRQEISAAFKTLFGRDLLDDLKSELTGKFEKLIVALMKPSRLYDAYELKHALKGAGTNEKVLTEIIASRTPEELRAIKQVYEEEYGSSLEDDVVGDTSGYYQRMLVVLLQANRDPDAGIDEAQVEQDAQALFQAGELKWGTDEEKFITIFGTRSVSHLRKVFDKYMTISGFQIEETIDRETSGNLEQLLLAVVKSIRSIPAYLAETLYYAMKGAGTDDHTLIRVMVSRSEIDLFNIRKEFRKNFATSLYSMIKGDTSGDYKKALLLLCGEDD

B1: δ-V1: V1/C2 domain of δ-PKC (SEQ ID NO:18), used as myelin basic protein fusion (protein)
chain: MAPFLRISFNSYELGSLQAEDDASQPFCAVKMKEALTTDRGKTLVQKKPTMYPEWKSTFDAHIYEGRVIQIVLMRAAEDPMSEVTVGVSVLAERCKKNNGKAEFWLDLQPQAKVLMCVQYFLEDGDCKQSMRSEEEAMFPTMNRRGAIKQAKIHYIKNHE
modifications: left off: large carriers
B2: ε-V1: V1 region of ε-PKC (SEQ ID NO:20) (protein, listed as Homo sapiens)
chain: MVVFNGLLKIKICEAVSLKPTAWSLRHAVGPRPQTFLLDPYIALNVDDSRIGQTATKQKTNSPAWHDEFVTDVCNGRKIELAVFHDAPIGYDDFVANCTIQFEELLQNGSRHFEDWIDLEPEGKVYVIIDLSGSSGEAPKDNEE
B3: δ-PKC: full length δ-protein kinase C (SEQ ID NO:16) (protein, listed as Homo sapiens)
chain: MAPFLRISFNSYELGSLQVEDEASQPFCAVKMKEALSTERGKTLVQKKPTMYPEWKTTFDAHIYEGRVIQIVLMRAAEDPVSEVTVGVSVLAERCKKNNGKAEFWLDLQPQAKVLMCVQYFLEDGDCKQSMRSEEEAKFPTMNRRGAIKQAKIHYIKNHEFIATFFGQPTFCSVCKEFVWGLNKQGYKCRQCNAAIHKKCIDKIIGRCTGTATNSRDTIFQKERFNIDMPHRFKVYNYMSPTFCDHCGSLLWGLVKQGLKCEDCGMNVHHKCREKVANLCGINQKLLAEALNQVTQRSSRKLDTTESVGIYQGFEKKPEVSGSDILDNNGTYGKIWEGSTRCTLENFTFQKVLGKGSFGKVLLAELKGKDKYFAIKCLKKDVVLIDDDVECTMVEKRVLALAWESPFLTHLICTFQTKDHLFFVMEFLNGGDLMFHIQDKGRFELYRATFYAAEIICGLQFLHSKGIIYRDLKLDNVMLDRDGHIKIADFGMCKENIFGEGRASTFCGTPDYIAPEILQGLKYSFSVDWWSFGVLLYEMLIGQSPFHGDDEDELFESIRVDTPHYPRWITKESKDIMEKLFERDPDKRLGVTGNIRIHPFFKTINWSLLEKRKVEPPFKPKVKSPSDYSNFDPEFLNEKPQLSFSDKNLIDSMDQEAFHGFSFVNPKFEQFLDI

molecular target: T1, annexin V; assay: overlay binding assay on immobilized annexin V; conditions: immobilized annexin V on nitrocellulose, overlay 37° C. 30 min, Western blotting
Method: A binding assay was performed in vitro, using an immobilized annexin V with the δ-PKC, δ-V1 (SEQ ID NO:18) (the C2 domain of δ-PKC), δ-V5 (SEQ ID NO:19), and ε-V1 (SEQ ID NO:20) peptides. These domains are recognized in the art as participating in protein-protein interactions.
10 μg of the annexin V was separated on 12% SDS-PAGE gel and transferred to nitrocellulose, and then cut into strips. The strips were incubated with blocking buffer (50 mM Tris pH 7.5, 200 mM NaCl, 3% bovine serum albumin, 0.1% PEG20). The strips were then incubated in overlay buffer (50 mM Tris pH 7.5, 200 mM NaCl, 1% PEG20, 12 mM β-mercaptoethanol) in the presence where appropriate of 30 μg crude bacterial cell lysate containing fusion proteins of myelin basic protein (MBP)-delta V1 PKC (MBP-δV1), glutathione-S-transferase-delta V5 PKC (GST-δV5), and full length sequences of δ-PKC or rat purified ε-PKC (SEQ ID NO:21) at 37° C. for 30 min. The strips where then washed with wash buffer (50 mM Tris pH 7.5, 200 mM NaCl, 0.1% PEG20, 12 mM β-mercaptoethanol), and then incubated with fixative (0.2% formaldehyde in PBS) and neutralizing solution (0.2M glycine in PBS) at room temperature 20 min each. After washing with buffer, the strips were probed with antibodies according to the overlay protein, and resulting bands were visualized using ECL Western blotting.

Molecule	binding to annexin V
B1	bind to the annexin V
B2	did not bind to the annexin V
B3	bind to the annexin V
